This note sets out measurements from publication PMC9528872 (Nature Communications, 2022).

Assay [1] concerns the target SARS-CoV-2 receptor binding domain (RBD), biotinylated (SARS-CoV-2, Wuhan-type, UniProt P0DTC2, biotin (BirA, on the Avi tag)). Kind of assay: BLI. The conditions noted are these: both partners purified.
The target in assay [2] is T1, Tor2 SARS-CoV spike (Toronto, 2003) (SARS-CoV, strain Tor2).
T1 construct: also called Tor2 spike protein
Kind of assay: ELISA; antibody at 2 ug/ml against Tor2 SARS-CoV spike. (ELISA stands for enzyme-linked immunosorbent assay.)

B1: Ab 2-7 scFv (scFv, V domains shown)
VH: QVTLKESGPTRVKPTQTLTLTCTFSGFSLSTTGVGVGWIRQPPGKALEWLALIYWNDDKRYSPSLKSRLTITKDTSKNQVVLTMTNMDPVDTATYYCARISGSGYFYPFDIWGQGTTVTVSS
VL: NFMLTQPHSVSESPGKTVTISCTRSSGSIASNYVQWYQQRPGSSPTTVIYEDNQRPSGVPDRFSGSIDSSSNSASLTISGLKAEDEADYYCQSYDSSSLWVFGGGTKLTVL
For the molecule B1, in assay [1], the affinity, expressed as Kd, was 107 pM; the koff is 4.81e-05 s⁻¹; the kon came out at 452000 M⁻¹ s⁻¹.

B2: Ab 2-7 scFv-Fc (Fc fusion)
VH: QVTLKESGPTRVKPTQTLTLTCTFSGFSLSTTGVGVGWIRQPPGKALEWLALIYWNDDKRYSPSLKSRLTITKDTSKNQVVLTMTNMDPVDTATYYCARISGSGYFYPFDIWGQGTTVTVSS
VL: NFMLTQPHSVSESPGKTVTISCTRSSGSIASNYVQWYQQRPGSSPTTVIYEDNQRPSGVPDRFSGSIDSSSNSASLTISGLKAEDEADYYCQSYDSSSLWVFGGGTKLTVL
For B2, the binding result in assay [2] was “binds”.

As a reminder, the Kd is the free concentration of one partner at which half of the binding sites on the other are occupied at equilibrium, for simple one-to-one binding. In general, koff refers to the rate constant with which the complex falls apart. High values mean fast dissociation, low ones slow dissociation. The kon is a measure of how fast the partners come together. A high value points to faster complex formation.
